# Test results: article PMC2063867 (The Journal of Cell Biology, 2006)
# T1: FLAG-GIT1 (synthesized in vitro) (UniProt Q9Y2X7 1-761)
# T1 sequence: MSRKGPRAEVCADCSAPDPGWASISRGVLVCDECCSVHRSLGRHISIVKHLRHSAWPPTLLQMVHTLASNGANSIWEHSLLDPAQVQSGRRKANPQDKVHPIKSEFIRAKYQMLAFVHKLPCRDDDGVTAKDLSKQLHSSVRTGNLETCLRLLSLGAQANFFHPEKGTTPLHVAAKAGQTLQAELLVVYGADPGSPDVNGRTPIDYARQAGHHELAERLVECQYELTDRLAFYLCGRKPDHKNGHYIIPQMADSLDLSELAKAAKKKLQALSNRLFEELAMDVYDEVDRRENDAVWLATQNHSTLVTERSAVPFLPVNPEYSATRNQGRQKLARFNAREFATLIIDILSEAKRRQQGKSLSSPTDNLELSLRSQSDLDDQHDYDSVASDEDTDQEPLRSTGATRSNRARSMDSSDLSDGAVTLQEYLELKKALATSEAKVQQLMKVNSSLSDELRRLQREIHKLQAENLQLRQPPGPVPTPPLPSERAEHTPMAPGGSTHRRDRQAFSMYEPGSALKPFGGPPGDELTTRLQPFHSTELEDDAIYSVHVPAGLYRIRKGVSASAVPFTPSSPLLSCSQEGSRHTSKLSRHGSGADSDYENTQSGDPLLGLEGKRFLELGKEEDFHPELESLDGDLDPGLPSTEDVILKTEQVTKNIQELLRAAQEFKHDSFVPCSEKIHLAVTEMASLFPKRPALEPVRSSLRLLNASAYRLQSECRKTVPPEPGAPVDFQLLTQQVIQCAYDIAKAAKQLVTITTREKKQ
# B1: FLAG-GIT1 (expressed in CHO-K1 cells) (natural protein)
# chain: MSRKGPRAEVCADCSAPDPGWASISRGVLVCDECCSVHRSLGRHISIVKHLRHSAWPPTLLQMVHTLASNGANSIWEHSLLDPAQVQSGRRKANPQDKVHPIKSEFIRAKYQMLAFVHKLPCRDDDGVTAKDLSKQLHSSVRTGNLETCLRLLSLGAQANFFHPEKGTTPLHVAAKAGQTLQAELLVVYGADPGSPDVNGRTPIDYARQAGHHELAERLVECQYELTDRLAFYLCGRKPDHKNGHYIIPQMADSLDLSELAKAAKKKLQALSNRLFEELAMDVYDEVDRRENDAVWLATQNHSTLVTERSAVPFLPVNPEYSATRNQGRQKLARFNAREFATLIIDILSEAKRRQQGKSLSSPTDNLELSLRSQSDLDDQHDYDSVASDEDTDQEPLRSTGATRSNRARSMDSSDLSDGAVTLQEYLELKKALATSEAKVQQLMKVNSSLSDELRRLQREIHKLQAENLQLRQPPGPVPTPPLPSERAEHTPMAPGGSTHRRDRQAFSMYEPGSALKPFGGPPGDELTTRLQPFHSTELEDDAIYSVHVPAGLYRIRKGVSASAVPFTPSSPLLSCSQEGSRHTSKLSRHGSGADSDYENTQSGDPLLGLEGKRFLELGKEEDFHPELESLDGDLDPGLPSTEDVILKTEQVTKNIQELLRAAQEFKHDSFVPCSEKIHLAVTEMASLFPKRPALEPVRSSLRLLNASAYRLQSECRKTVPPEPGAPVDFQLLTQQVIQCAYDIAKAAKQLVTITTREKKQ
# B2: phospho–S273-paxillin (untagged WT-paxillin synthesized in vitro and incubated with CA-myc-PAK1) (natural protein)
# chain: not shown
# modifications: phosphoserine at 273
# Tests used:
# Assay in all cases: co-IP
# S273A-paxillin-GFP = S273A-paxillin-GFP (UniProt P49024 1-559, S273A)
# S273D-paxillin-GFP = S273D-paxillin-GFP (UniProt P49024 1-559, S273D)
# [1] = target: T1, FLAG-GIT1 (synthesized in vitro)
# Sequence of S273A-paxillin-GFP (P49024 whole entry S273A): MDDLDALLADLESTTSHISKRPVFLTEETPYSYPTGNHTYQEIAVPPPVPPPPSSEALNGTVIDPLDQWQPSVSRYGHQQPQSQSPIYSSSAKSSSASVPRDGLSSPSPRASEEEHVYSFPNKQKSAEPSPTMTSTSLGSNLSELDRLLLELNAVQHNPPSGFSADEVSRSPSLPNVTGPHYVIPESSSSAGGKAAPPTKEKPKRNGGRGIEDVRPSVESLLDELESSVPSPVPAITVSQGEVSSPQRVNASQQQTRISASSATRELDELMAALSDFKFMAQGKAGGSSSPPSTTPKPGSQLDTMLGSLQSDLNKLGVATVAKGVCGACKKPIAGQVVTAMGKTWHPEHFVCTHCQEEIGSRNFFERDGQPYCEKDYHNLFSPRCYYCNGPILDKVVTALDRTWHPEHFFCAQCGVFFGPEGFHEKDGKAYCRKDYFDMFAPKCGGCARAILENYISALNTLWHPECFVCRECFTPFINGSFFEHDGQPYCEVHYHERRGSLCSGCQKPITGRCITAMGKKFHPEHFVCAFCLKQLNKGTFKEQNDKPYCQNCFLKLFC
# Sequence of S273D-paxillin-GFP (P49024 whole entry S273D): as the sequence (P49024 whole entry S273A) above, with A273D counted along it
Binder,fold decrease of GIT1 binding against WT-paxillin (S273A-paxillin-GFP),fold increase of GIT1 binding against WT-paxillin (S273D-paxillin-GFP),fold increase of phospho–S273-paxillin bound to FLAG-GIT1 with CA- versus KD-PAK [1]
B1,2 fold,~3 fold,–
B2,–,–,7 fold
